Test results as given in patent publication US12065466B2, “Methods and compositions for protein sequencing” (Quantum-Si Incorporated, priority 2020, dated 2024).
Positions count from the first letter of the chain named.

B1: PS535: UBR-box domain homolog, SEQ ID NO: 163 (protein, listed as Mus musculus)
chain: MLCGRVFKVGEPTYSCRDCAVDPTCVLCMECFLGSIHRDHRYRMTTSGGGGFCDCGDTEAWKEGPYCQKHKL
B2: PS522: UBR-box domain homolog, SEQ ID NO: 150 (protein, listed as Vombatus ursinus)
chain: MLCGKVFKSGETTYSCRDCAIDPTCVLCMNCFQSSVHKNHRYKMHTSTGGGFCDCGDTEAWKTGPFCTIHEP
B3: PS505: UBR-box domain homolog, SEQ ID NO: 133 (protein, listed as Brachionus plicatilis)
chain: MVCGRVFKSGEPSYFCRECGTDPTCVLCSICFRHSKHRYHKYVMMTSGGGGYCDCGDPEAWKSDPCCELHMP
B4: PS538: UBR-box domain homolog, SEQ ID NO: 166 (protein, listed as Saccharomyces cerevisiae)
chain: MGDVHKHTGRNCGRKFKIGEPLYRCHECGCDDTCVLCIHCFNPKDHVNHHVCTDICTEFTSGICDCGDEEAWNSPLHCKAEEQ
B5: PS624: UBR-box domain homolog, SEQ ID NO: 184 (protein, listed as Eremothecium sinecaudum)
chain: MPKNHNHKGRNCGRSFQPGEPLYRCQECAYDDTCVLCIRCFNPLDHVNHHVSTHICSEFNDGICDCGDVEAWNVELNCKAEED
B6: PS615: UBR-box domain homolog, SEQ ID NO: 175 (protein, listed as Kluyveromyces marxianus)
chain: MVNEHRGSQCSKQCHGTETVYYCFDCTKNPLYEICEECFDETQHMGHRYTSRVVTRPEGKVCHCGDISGYNNPEKAFQCKI
B7: PS616: UBR-box domain homolog, SEQ ID NO: 176 (protein, listed as Kluyveromyces lactis)
chain: B6 chain with V2H, E4D, E37D, T42S, M45I, G69S, N72D, E74K, K80R
B8: PS618: UBR-box domain homolog, SEQ ID NO: 178 (protein, listed as Zygosaccharomyces bailii)
chain: MNASHKGAMCSKQCYPTETVFYCFTCTTNPLYEICESCFDEEKHRGHLYTAKVVVRPEGRVCHCGDPFVFKEPRFAFLCKN
B9: Escherichia coli leucyl/phenylalanyl-tRNA-protein transferase: amino acid recognition protein, SEQ ID NO: 111 (protein, listed as Escherichia coli)
chain: MRLVQLSRHSIAFPSPEGALREPNGLLALGGDLSPARLLMAYQRGIFPWFSPGDPILWWSPDPRAVLWPESLHISRSMKRFHKRSPYRVTMNYAFGQVIEGCASDREEGTWITRGVVEAYHRLHELGHAHSIEVWREDELVGGMYGVAQGTLFCGESMFSRMENASKTALLVFCEEFIGHGGKLIDCQVLNDHTASLGACEIPRRDYLNYLNQMRLGRLPNNFWVPRCLFSPQELE
B10: PS544: UBR-box domain homolog, SEQ ID NO: 173 (protein, listed as Homo sapiens)
chain: MGPLGSLCGRVFKSGETTYSCRDCAIDPTCVLCMDCFQDSVHKNHRYKMHTSTGGGFCDCGDTEAWKTGPFCVNHEP
B11: PS617: UBR-box domain homolog, SEQ ID NO: 177 (protein, listed as Eremothecium sinecaudum)
chain: MPKEHRGTSCNKHCQPTETVYYCFDCTKNPLYEICEECFDADKHLGHRWTSKVVSRPEGKICHCGDPSGLTDPENGYECKN
B12: PS626: UBR-box domain homolog, SEQ ID NO: 186 (protein, listed as Zygosaccharomyces parabailii)
chain: MYHVYKHSGRNCGRKFKVGEPIYRCHECGYDETCVLCIHCFNPKDHDSHHVYIDICSEFSTGICDCGDTEAFVNPLHCKAEED
B13: H. sapiens Fyn SH2 domain: SEQ ID NO: 116 (protein, listed as Homo sapiens)
chain: MGAMDSIQAEEWYFGKLGRKDAERQLLSFGNPRGTFLIRESETTKGAYSLSIRDWDDMKGDHVKHYKIRKLDNGGYYITTRAQFETLQQLVQHYSERAAGLSSRLVVPSHK
B14: PS623: UBR-box domain homolog, SEQ ID NO: 183 (protein, listed as Kazachstania naganishii)
chain: MSKQFRHKGRNCGRKFRLGEPLYRCQECGYDDTCVLCINCFNPKDHEGHHIYTDICNDFTSGICDCGDEEAWLSPLHCKAEED
B15: Homo sapiens UBR2: SEQ ID NO: 174 (protein, listed as Homo sapiens)
chain: MGPLGSLCGRVFKVGEPTYSCRDCAVDPTCVLCMECFLGSIHRDHRYRMTTSGGGGFCDCGDTEAWKEGPYCQKHE
B16: PS628: UBR-box domain homolog, SEQ ID NO: 188 (protein)
chain: MSHRAYHKNSPCGRIFRKGEPIHRCLTCGFDDTCALCSHCFQPEYHEGHKVHIGICQRENGGVCDCGDPEAWTQELFCPYAVD
modifications: Candida albicans
B17: PS625: UBR-box domain homolog, SEQ ID NO: 185 (protein, listed as Saccharomyces eubayanus)
chain: B4 chain with V47I, T57S, P75S
B18: PS619: UBR-box domain homolog, SEQ ID NO: 179 (protein, listed as Vanderwaltozyma polyspora)
chain: MENLHIGSCCNRQCYPTQTVYYCLTCTINPLYEICELCFDEDKHVGHTYISKSVIRPEGKVCHCGNPNVFKKPEFAFNCKN
B19: PS543: UBR-box domain homolog, SEQ ID NO: 172 (protein, listed as Trichinella spiralis)
chain: MKCNRQLICGEPTYCCLDCACDQTCIFCHACFQSSEHKNHRYSMSTSEGSGTCDCGDKEAWKSNYYCLNHKP
B20: PS629: UBR-box domain homolog, SEQ ID NO: 189 (protein, listed as Pichia pastoris)
chain: MCPNYKHHGRPCARQFKQGEPIYRCYECGFDETCVMCMHCFNREQHRDHEVSISIASSSNDGICDCGDPQAWNIELHCQSELD
B21: PS627: UBR-box domain homolog, SEQ ID NO: 187 (protein, listed as Zygosaccharomyces mellis)
chain: MPKYHQHSGRYCGRKFKVGEPIYRCHECGFDETCVICIHCFNAKDHETHHVSVSICSEYSTGICDCGDTEAFVNPLHCRAEEV
B22: PS622: UBR-box domain homolog, SEQ ID NO: 182 (protein, listed as Kluyveromyces dobzhanskii)
chain: MHSRFNHAGRICASKFKVGEPIYRCKECSFDDTCVICVNCFNPKDHVGHHVYTSICSEFNNGICDCGDTEAWNHDMHCKADEN
B23: PS620: UBR-box domain homolog, SEQ ID NO: 180 (protein, listed as Saccharomyces cerevisiae)
chain: MGNMHIGTACTRLCFPSETIYYCFTCSTNPLYEICELCFDKEKHVNHSYVAKVVMRPEGRICHCGDPFAFNDPSDAFKCKN

test system: immobilized peptides containing N-terminal R, K or H; experiment: Biolayer interferometry of UBR-box domain homologs; type: binding; conditions: 14 peptides RXGGGDDDFFK (SEQ ID NO: 241)
Experimental: The amino acid binding properties of UBR-box domain homologs were evaluated by biolayer interferometry. Peptides containing an N-terminal arginine (R), followed by different amino acids in the penultimate position, were immobilized on a biolayer interferometry sensor surface, allowed to bind to UBR-box protein, and incubated in buffer to allow the UBR-box molecules to dissociate. […] FIG. 32C is a heatmap showing results measured for 24 UBR-box homologs against 14 polypeptides containing N-terminal R followed by different amino acids in the penultimate position.
UBR proteins bind to the basic N-terminal residues R, K, and H as part of the conserved N-end rule pathway. To identify high-affinity UBR proteins with properties favorable for use in sequencing, a diverse panel of uncharacterized UBR-box domain homologs from 44 species (PS501-PS544) was designed. UBR-box domain homologs were expressed, purified, and evaluated for binding to N-terminal amino acids by biolayer interferometry. Measurements were carried out at 30° C. for each protein for R, K and H binding. The amino-acid binding profile of each new homolog was first evaluated by biolayer interferometry using a single-point screening assay. All peptides in this screen contained a penultimate alanine (A) and consisted of the sequence XAKLDEESILKQK (SEQ ID NO: 238), where X is R, K, or H.
To evaluate the effect of penultimate amino acids on arginine binding, UBR box-domain homologs were evaluated for binding to 14 different peptides with N-terminal RX (peptide sequence: RXGGGDDDFFK (SEQ ID NO: 241)). The selected RX dipeptides are the 14 most frequently found in the human proteome.

Molecule	binding range for RX dipeptides	dissociation rates with R dipeptides
B1	extensive binding range for RX dipeptides	faster dissociation rates
B2	extensive binding range for RX dipeptides	faster dissociation rates

same assay, conditions: 14 polypeptides containing N-terminal R

Molecule	binding affinity to N-terminal R with different penultimate amino acids
B3	high binding affinity to R in the presence of a wide range of penultimate amino acids
B1	high binding affinity to R in the presence of a wide range of penultimate amino acids
B2	high binding affinity to R in the presence of a wide range of penultimate amino acids

same assay, conditions: 30° C., XAKLDEESILKQK

Molecule	binding to RA/KA/HA peptides (single-point screening)
B1	favorable binding trajectories to RA and KA peptides with notably high response for RA peptide
B2	favorable binding trajectories to RA and KA peptides with notably high response for RA peptide
B4	favorable binding trajectories to RA and KA peptides with notably high response for RA peptide

test system: amino acid at a terminal position of a polypeptide; experiment: not given; conditions: Table 2; amino acid identity at a terminal position (phosphotyrosine also internal); inferred from literature and/or demonstrated by the inventors; cited from earlier work

Molecule	Binding Pref.
B5	K, R, H
B6	K, R, H
B7	K, R, H
B8	K, R, H
B9	K, R
B10	K, R, H
B3	K, R, H
B1	K, R, H
B11	K, R, H
B12	K, R, H
B2	K, R, H
B13	phospho-Y
B14	K, R, H
B15	K, R, H
B16	K, R, H
B4	K, R, H
B17	K, R, H
B18	K, R, H
B19	K, R, H
B20	K, R, H
B21	K, R, H
B22	K, R, H
B23	K, R, H
